In patent US20120100536A1 (UNIVERSITY OF TOKYO, published 2012):

Molecular target: T1, α1-antitrypsin (UniProt P01009 25-418)
T1 construct: Co-expressed with HTRA1-V5 in HEK293 cells; Complex detected in serum-free conditioned medium by anti-V5 immunoblot; also called al-antitrypsin
Test: co-expression in HEK293, anti-V5 immunoblot of conditioned medium
Description: To assay formation of a stable complex with α1-antitrypsin, we transiently expressed α1-antitrypsin and either wild-type or mutated HTRA1 cDNAs with a VS tag at the C-terminus in HEK293 cells. These cells were grown in serum-free medium, and conditioned media were then immunoblotted with anti-V5 antibody.¹⁴

T1 sequence (P01009 25-418 limits assumed): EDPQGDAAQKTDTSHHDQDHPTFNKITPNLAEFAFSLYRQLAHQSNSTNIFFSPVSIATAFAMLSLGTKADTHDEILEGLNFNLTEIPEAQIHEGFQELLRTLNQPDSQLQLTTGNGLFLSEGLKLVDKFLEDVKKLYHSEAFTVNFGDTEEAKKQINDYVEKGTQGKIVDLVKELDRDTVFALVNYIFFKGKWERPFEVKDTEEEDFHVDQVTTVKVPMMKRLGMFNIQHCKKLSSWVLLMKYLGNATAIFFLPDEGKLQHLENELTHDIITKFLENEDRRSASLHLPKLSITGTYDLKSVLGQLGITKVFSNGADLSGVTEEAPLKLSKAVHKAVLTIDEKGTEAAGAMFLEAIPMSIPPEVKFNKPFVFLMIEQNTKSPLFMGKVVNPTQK

binding result: no binding
B1: HTRA1 R302X with a V5 tag at the C-terminus (enzyme)
chain: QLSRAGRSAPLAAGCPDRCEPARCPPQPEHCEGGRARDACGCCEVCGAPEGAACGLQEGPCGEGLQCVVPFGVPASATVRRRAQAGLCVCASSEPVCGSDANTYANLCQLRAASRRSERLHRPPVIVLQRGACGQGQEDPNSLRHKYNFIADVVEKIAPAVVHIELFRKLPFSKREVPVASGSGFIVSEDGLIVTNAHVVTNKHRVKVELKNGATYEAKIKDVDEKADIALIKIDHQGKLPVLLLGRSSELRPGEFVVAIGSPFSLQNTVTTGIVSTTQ
notes: The range 1-301 is derived from that statement; not shown: C-terminal V5 tag
